Experiment: yeast display, Sf9 membrane polyspecificity reagent, FACS + sequencing; frameworks hold sequencing errors
Method in brief: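 Genes from sorted yeast were amplified by colony PCR, read by MiSeq 2 × 250 sequencing and filtered on CDR length. These cells carried a synthetic nanobody library in Saccharomyces cerevisiae BJ5465 and were sorted by FACS into low and high (top ~1%) gates on anti-HA and streptavidin fluorescence. Polyreactivity is labelled according to the gate of origin.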

Sequence	polyreactivity (PSR sort gate)
QVQLVESGGGLVQAGGSIRFSCAASGRIFAHYAMGWYRPAPGKERELVAAISSSGTRTYYADSVKGRFTISRDNAKNTVYLQMNSLKPEDTAVFYCAKDSYHTVWGGYWGQGTQVTVSS	high polyreactivity
QVQLVESGGGLVQAGGSIRLRCAASGITFYYYAMGWYRQAPAKERELVAAISRSGITYYADSVKGRFTISRDNAKNSVYLQMNSLKPEDTAVYYGAAGRRFDQSMYYGGQGTQVTVSS	high polyreactivity
QVQLVESGGGLVQAGGSIRLSCAASGFIFKWYAMGWYRQAPGKERELVAVINRSGSTYYADSVKGRFTISRDNAKNTVYLQMNSLKPEDTAVYYCAAVQQYSSVYYYTYDYWGQGTQVTVSS	high polyreactivity
QVQLVESGGGLVQAGGSIRLSCAASGFIFWANAMGWYIQAPGKERELVAAISGSGGRTYYADSVKGRFTISRDNAKNTVYLQMNSLKPEDTAVYYCAAKVSAWKKKSEMNYWGQGTQVTVSS	high polyreactivity
QVQLVESGGGLVQAGGSIRLSCAASGFNFRWYAMGWYRQAPGKERELVAAIRSGGSTNYADSVKGRFTIARDNAKNTVSLQMNSLKPEDRAVYYCAAERTSYYYSNDYWGQGTQVTVSS	high polyreactivity
QVQLVESGGGLVQAGGSIRLSCAASGGTFSYYAMGWYRQAPGKESELVAAISGNGDTTYYADSVKGRFTISRDNAKNTDYVQMNSLKPEDTAVYYCATAFSYGGGAYDYWGQGTLVTVSS	low polyreactivity
QVQLVESGGGLVQAGGSIRLSCAASGIIFLGNAMGWYRQAPGIERELVAAITASGTTSYYADSVKGRFTISRDNAKNTVSLQMNSLKPEDTAVDYCAAQSTWYDFYYWVQGTQVTVSS	low polyreactivity
QVQLVESGGGLVQAGGSIRLSCAASGITFYKYAMGWYRQAPGKERELVAAISGNGGSTYYADSVKGRFTISRDYAKNTVYLQMNSLKPEDTAVYFCNRGYRRTDNYWGQGTQVTVSS	high polyreactivity
QVQLVESGGGLVQAGGSIRLSCAASGITFYRNAMGWYRQAPGKEKELVAAITWNGGRTYYADSVKGRFTISRDNAKNTVYLQMNSLKPEDTAVYYCAAAYPTYRHYYWGQGTQVTVSS	low polyreactivity
QVQLVESGGGLVQAGGSIRLSCAASGRIFAYNPMGWSRQAPGKERELVAVITSGRSTNYADSVKGRFTISRDNEKNNVYLQMNSLKPVDTAFYYCAKRPYGRSGGSRYDYWGQGTQGTVSS	high polyreactivity
QVQLVESGGGLVQAGGSIRLSCAASGRIFGRYAMGWYRQAPGKEMELVATITWRGGITYYADSVKGRFTISRDNAKNTVYLQLKRLKPEDNAVYYCAAGYGRIPYEYWGQGTQVTVSS	high polyreactivity
QVQLVESGGGLVQAGGSIRLSCAASGRTFKKYAMGWYRQAPGKERELVAAITGSGGSTYYADSVKGRFTISRDNAKNTVYLQINSLKPEDTAVYYCAAYAYGVGHSQDGGNYWGQGNQVTVSS	low polyreactivity
QVQLVESGGGLVQAGGSIRLSCAASGSIFTINTMGWYRQAPGKERELVAAISKRGGSTYYADSVKGRFTISRDNAKNTVYLQKNSLKPEDTAVYYCAARQFYKYYYWGQGTQVTVSS	high polyreactivity
QVQLVESGGGLVQAGGSIRLSCAASGSIYKSNTMGRYRQAPGKEREFVAAISWGGGSTYYADSVKGRFTISRDNAKHTVYLQMNSLKPEDTAVYYCATRPGTRPAYDYWGQGTQVTVSS	high polyreactivity
QVQLVESGGGLVQAGGSIRLSCAASGSTFYLYAMGWSRPAPGKERELVATITNGGGTNYADSVKGRFTISRDNEKNTVYIQMNTLKPEDTAVYYCAATWYHRDGDYWGQGTQVTVSS	low polyreactivity
QVQLVESGGGLVQAGGSISLSCAASGYIFHVYAMGWYRQAPGKERELVAAITSSGGSTYYADSVKGRFTISRDNAKNTVYLQMNSLKPEDTAVYYCAAAPCSFRYRYVVFTFGYWGQGTQVTVSS	high polyreactivity
QVQLVESGGGLVQAGGSLCLSCAASGIFVYNAMGWYRQAPGKEREFVAAINKSGASTFYADSVKGRFTISRDNAKNTVYLQMNSLKPEDTAVYYCRERDYWGQGTQVTVSS	low polyreactivity
QVQLVESGGGLVQAGGSLGLSCAASGFIFDAYAMGWYRQAPGKERELVAGISIGGRTNYADSVKGRFTISRDNAKNTVYLQMNSLKPEDTAVYYCAARNYRYYYGSYYRGPITNYEYWGQGTQVTVSS	low polyreactivity
QVQLVESGGGLVQAGGSLGLSCAASGGILQSYAMGWYRQAPGKERELVATITYSAGSTYYADSVKGRFTISRDNAKNTVYLQMKSLKPEDTAVYVCAARRIPPARYKGYYYWGQGTQLTVSS	high polyreactivity
QVQLVESGGGLVQAGGSLGLSCAASGIIFGKYAMGWYRQAPGKERELVASITVDGGTTYYADSVKGLFTISRDNANNTVYLQMNSLKPEDTAVYYCATGVFAELWFDYWPYDYWGQGTQVTVSS	high polyreactivity
QVQLVESGGGLVQAGGSLGLSCAASGITFYTYPMGLYRQAPGKERELVAAISRRGGSTYYADSVKGRFTISRDNAKNTVYLHLNSLKPEDTAVYYCNAVADCYSGFDGYYYWGQGTQVTVSS	high polyreactivity
QVQLVESGGGLVQAGGSLGLSCAASGRIFARYAMGWYRQAPGKERELVAAITKSVGSTYYADSVKGRFTISRDNAKNTVYLQMNIMKPEDTAVYYCAARYRGGYYFGYETYYYWGQGTQVTVSS	high polyreactivity

Sequence	polyreactivity (PSR sort gate)
QVQLVESGGGLVQAGGSLGLSCAASGRTFGYYAMGWYRQAPGTERALVAAIRSTGSTNYADSVKGRFTISRDNAKNTVYLQMNSLIPEDTAVYYCYAKRRFRYDYWGQGTQVTVSS	low polyreactivity
QVQLVESGGGLVQAGGSLGLSCAASGSTFAEYAMGWYRQAPGKERELVAVISFGDGNTYYADSVKGRVTISRDNAKNTVYLQMNSLKPEDTAVYYCNAADDSVDQSVRTLRQYEYWGQGTQVTVSS	low polyreactivity
QVQLVESGGGLVQAGGSLGLSCAASGSTLSAYVMGWYRQAPGKEREFVAAITWSGGNTYYADSVKGRFTISRDNAKHTVYLQMNSLKPEDTAVYFCARRGYRQSGDYWGQGTQVTVSS	low polyreactivity
QVQLVESGGGLVQAGGSLHLSCAASGSIFPYNLMGWYRQAPGKERELVAAISNTGSTNYADSVKGRFTISRDNAMNTVYFQMNSLKPDDTAVYYCNADGSYGFWSLLDYDYWGQGTQVTVSS	low polyreactivity
QVQLVESGGGLVQAGGSLLFSCAASGHIFRTYAMGWYRQAPGKERELVAAINIGGTTDYADSVKGRFTISRDNAKNTVYLQMNSLKPEDTAVYYCNAYNRFWEYVYWGQGTQVTVSS	low polyreactivity
QVQLVESGGGLVQAGGSLLLICAASGITFWSYAMGWYRQAPGKERELVAAISSTGSTNYADSVKGRFTISRDNAKNTVYLQMNSLKPEDTAVYYCAAEYTFWWSRTGKYYYWGQGTQVTVSS	high polyreactivity
QVQLVESGGGLVQAGGSLLLSCAASGFTFDYYAMGWYRQAPGKERELVAAITWSGGSTYYADSVKGRFTISRDNAKNTVYLQMNSLKPEDTAVYYCNAYYYHLYRGSTSYDYWGQGTQVTVSS	low polyreactivity
QVQLVESGGGLVQAGGSLLLSCAASGFTFGFNAMGWYRQAPGQERELGAAISRGGSTNYADSVKGRFTISRDNAKNTVYVQMNSLKPEDTAVYDCAADFITYVFRFYYWGQGTLVTVSS	low polyreactivity
QVQLVESGGGLVQAGGSLLLSCAASGFTFSYYAMGWYRQAPGKERDLVAAISWDGDSTYYADSVKGRFTISRDNAKNTVYLQMNSLKPEDTAVYYSAAEFSYYWDGYDYWGQGTQVTVSS	high polyreactivity
QVQLVESGGGLVQAGGSLLLSCAASGFTFTVYAMGWYILAPGKERELVAAISWNGGSTYYADSVKGRFTISRDNAKNTVYLQMNSLKPEDTAVYYCNTLQPYLYDYWGQGTQVTVSS	high polyreactivity
QVQLVESGGGLVQAGGSLLLSCAASGFTLPSYAMGWYIQAPGKERELVAAISSTGRTYYADSVKGRFTISRDNAKNTVYLQMNSLKPEDTAVYYCAARQDTWDAYLSTGEFDYWGQGTQVTVSS	high polyreactivity
QVQLVESGGGLVQAGGSLLLSCAASGGTFRVYAMGSYRQAPVKERELVAAITWRGGRTYYGDSVKGRFTISRDHAKNTVYLQMKRVKPEDTAVYFCAADRYGDLYDYWGQGTQVTVSS	high polyreactivity
QVQLVESGGGLVQAGGSLLLSCAASGIIFRYYAMGWYRQAPGKERELVADISSDGGTYYADSVKGRFTISLDNATNTVYLQMNSLKPEDTAVDYCAADYQFYWHYYYWGQGTQVTVSS	high polyreactivity
QVQLVESGGGLVQAGGSLLLSCAASGLTFVANAMGWYSQAPGKERELVARISSSGGSTYYADSVKGRFTISRDNAKNTVYLQMNSLKPEDTAVYYCTARAVRWYYSMNYWGQGTQVTVSS	high polyreactivity
QVQLVESGGGLVQAGGSLLLSCAASGLTFYPNAMGWYRQAPGKERELVAAISSSGDSTYSADSVKVRFTISRDNAKNTVYLQMNSLKPEDTAVYYCAADLGYYNARWYEYWGQGTQVTVSS	high polyreactivity
QVQLVESGGGLVQAGGSLLLSCAASGRTFILNAMGWYRQAPGKERELVAAISWSGGSTYYADSVKGRFTISRDKSKNTVYLQMNSLKPEDPAVYYCAAETYAYLFHTYDYGGQGTQVTVSS	low polyreactivity
QVQLVESGGGLVQAGGSLLLSCAASGRTFYYNAMGWYRQAPGKERELVAAISRGGNTNYADSVKGRFTISRDNAKNTVYLQMNSLKPEDTAVYYCSTYHRYKFYYWGQGTQVTVSS	high polyreactivity
QVQLVESGGGLVQAGGSLLLSCAASGSIFGWYAMGWYRQAPGKERELVAAISSSGDSTYYADSVKGRFTISRDNAKNTVYLQMNSLKPEDTAVYYCAAEYWPSSPSAPGFDYDHWGQGTQVTVSS	low polyreactivity
QVQLVESGGGLVQAGGSLLLSCAASGSIFRVYAMGGYRQAPGKESELVAAISVSGSSTYYADSVKGRFTISRDNAKNTVYFQMNCLKREDTAVYYCATKQRRGYWGYITAYARYYWGQGTQVSVSS	high polyreactivity
QVQLVESGGGLVQAGGSLLLSCAASGSTFIPYAMGWYRQAPWKERELVAAITWSSGSTYYADSVKVRFTISRDNAKNTVFLQMNSLKTEDTAVYYCARDRYSVFDYDYWGQGTQVTVSS	low polyreactivity
QVQLVESGGGLVQAGGSLLLSCAASVFIYRWYAMGWYRPAPGKERELVAGISASGGSTYYADSVKGRFTISRDNAKNTVYLQMNSLKPEDTAVYYCAAYRRNSRWELDYWGQGTQVTVSS	high polyreactivity

Source: the nanobody polyreactivity screen of Harvey et al. (2022)
